Results on one molecule are retold here after patent publication US20240245800A1, “HIGHLY SPECIFIC RABBIT SINGLE -DOMAIN ANTIBODIES FOR DRUG DELIVERY IN IMMUNOTHERAPY APPLICATIONS” (TECHNOPHAGE, INVESTIGAÇÃO E DESENVOLVIMENTO EM …, priority 2021, published 2024).

“Also recorded” adds a separate entry of the source.

The subject of assay [1] is CLBL-1 cells. Briefly: Immunofluorescence binding/internalization of C5 in CLBL-1 cells. It counts as cell-based, canine. As to conditions: 5 μM, 90 minutes at 37° C. The procedure:
(§1) FIG. 8. Binding and internalization characterization of C5 VL sdAb. C5 binding and internalization properties against CLBL-1 cells were evaluated by cytometry and immunofluorescence. A) For flow cytometry analysis, 1×10^6 of CLBL-1 cells were incubated with Live/Dead reagents for 30 minutes. Then, 3 μM of C5 were incubated with the cells for different timepoints at 37° C. After, cells were washed, fixed, permeabilized, and incubated for 30 min with anti-HA antibody, washed twice and incubated with anti-rat Alexa Fluor-488. […] B) By contrast, no binding of C5 was detected with Jurkat cells. C) To confirm the binding of C5 to the CLBL-1 verified by flow cytometry, we evaluated its distribution on the cells by immunofluorescence assay. […] Representative microphotographs with C5 (green) and DAPI stained-nuclei (blue) are shown.
1.5×10^5 of CLBL-1 cells were plated on ibidi μ-Slide 8 Well Glass Bottom (#80827, Ibidi, Germany) and incubated for 24 h at 37° C. in a humidified atmosphere of 5% CO2. Then, 5 μM of VL was added to the cells and incubated for 90 minutes at 37° C. […] In the Airyscan acquisition mode, ×1.80 zoom images were recorded at 1024×1024 resolution. […]

Assay [2] concerns Jurkat cells. Nature of the assay: Flow cytometry binding of C5 VL sdAb to Jurkat cells. Format: cell-based, human. The procedure: as §1
The C5 VL sdAb binding and cellular internalization properties towards CLBL-1 cells were studied by cytometry analysis and immunofluorescence. […] Live/dead reagent was used to exclude dead cells and the background noise was also evaluated in the control with the secondary antibody (data not shown). To better characterize the binding of the C5 to the CLBL-1 cells, we further evaluated the internalization of the C5 sdAb on the cells using an immunofluorescence assay. […]
(In general: Flow cytometry measures light scatter and fluorescence of single cells or particles in a stream.)

For assay [3], the system named is Jurkat cells. Nature of the assay: Immunofluorescence of C5 with Jurkat cells. Format: cell-based, human.
Assay [4] relates to CLBL-1 cells. Nature of the assay: WST-1 cell viability assay on CLBL-1 cells. The note with it: 48 h treatment. Format: cell-based, canine. As to the method: FIG. 11—Cytotoxic effects of C5-DAB-SN-38. To determine the effect of C5-DAB-SN-38 on CLBL-1 and Jurkat cells, a cell viability assay was performed using the WST-1 reagent. 6×10^4 cells were seeded and treated with increasing amounts of compound. After 48 h treatment, cell viability was assessed. […] B) On the other hand, ADC had no effect on Jurkat cells, proving the specificity of the ADC. C5 was used as control. Best-fit EC50 values of each formulation were calculated using GraphPad Prism software (version 9.2.0, San Diego, CA, USA) using the log (inhibitor) vs response (variable slope) function. D) Effects of C5-DAB-SN-38 on DNA TopoI activity. To evaluate the effects of C5-DAB-SN-38 on DNA Topo I, we evaluated its activity using the Human Topoisomerase I Assay Kit. […]
To determine the effect of VL-DAB-SN-38 in CLBL-1 and Jurkat cell proliferation, a cell viability assay was performed using the Cell Proliferation Reagent WST-1 (Roche, Basel, Switzerland). […] After 48 h treatment, cell viability was assessed using WST-1, following the manufacturer's instructions. Absorbance at 450 nm was measured using the iMark microplate Reader (Bio-Rad). […] Best-fit EC50 values of each formulation were calculated using GraphPad Prism software (version 8.0, San Diego, CA, USA) using the log (inhibitor)) vs response (variable slope) function.

B1: C5: rabbit derived anti-cNHL VL sdAb clone, SEQ. ID. 3; ^99mTc radiolabelled for biodistribution (antibody, listed as Oryctolagus cuniculus, V domains shown)
VL: ELDLTQTPSPVSASVGGTATINCQASQSVYNNYWWAWYQQRPGHPPKLLIYETSKLASGVPSRFKGSGSGTQFTLTIIDVQCDDAATYVCAGGYGTVIDNAFGGGTELEIL
modifications: 99mTc(CO)3 radiolabel
notes: ID; ^99mTc radiolabelled for biodistribution
Regarding B1, the entries for the “distribution/internalization in CLBL-1 cells (immunofluorescence)” value in the assay on CLBL-1 cells [1] and in the assay with CLBL-1 cells [1] (listed as VL C5) were “internalization into the cytoplasm; also recorded: high density of Alexa Fluor-488 labelled C5 labelled in the perinuclear region” and “internalization into the cytoplasm”, respectively. The “binding to Jurkat cells (flow cytometry)” value with Jurkat cells [2] is listed as “no binding interaction”. The “fluorescence with Jurkat cells (immunofluorescence)” value in the assay with Jurkat cells [3] is “no detectable fluorescence”. In addition, in the assay with CLBL-1 cells [4], the “effect on CLBL-1 (cNHL) cell viability/proliferation” value was “does not affect cell proliferation”.
